Experimental findings from US20210388079A1 (IMMATICS BIOTECHNOLOGIES, published 2021) are described below.

Like-named read-outs stand apart in the source and are kept apart here.

Common to all, as to experiment: cell-based or functional assay
The target of experiment [1] is T1, HLA-A*02-presented SPINK2-001 on target cells (T2 cells loaded with SPINK2-001 peptide); A375 cells … (human).
The target in experiment [2] is T1, HLA-A*02-presented SPINK2-001 on target …. The source holds these as a separate data set.
Experiment [3] shares this target. The source holds these as a separate data set.

B1: TCR R40P1C2, alpha and beta chains expressed in human primary CD8+ T-cells by RNA electroporation (TCR, V domains shown)
V domain 1: QTVTQSQPEMSVQEAETVTLSCTYDTSESDYYLFWYKQPPSRQMILVIRQEAYKQQNATENRFSVNFQKAAKSFSLKISDSQLGDAAMYFCAYLNYQLIWGAGTKLIIKP
V domain 2: EPEVTQTPSHQVTQMGQEVILRCVPISNHLYFYWYRQILGQKVEFLVSFYNNEISEKSEIFDDQFSVERPDGSNFTLKIRSTKLEDSAMYFCASSEMTAVGQYFGPGTRLTVTE
On to B1, for which the “EC50 (read off the curve), IFNγ release, donor TCRA-0024” value (from here on “EC50 … donor TCRA-0024”) in experiment [1] is approximately 3 nM.

B2: TCR R59P2A7, alpha and beta chains expressed in human primary CD8+ T-cells by RNA electroporation (TCR, V domains shown)
V domain 1: QKEVEQNSGPLSVPEGAIASLNCTYSDRGSQSFFWYRQYSGKSPELIMSIYSNGDKEDGRFTAQLNKASQYVSLLIRDSQPSDSATYLCAVQPHDMRFGAGTRLTVKP
V domain 2: SQTIHQWPATLVQPVGSPLSLECTVEGTSNPNLYWYRQAAGRGLQLLFYSVGIGQISSEVPQNLSASRPQDRQFILSSKKLLLSDSGFYLCAWSGLVAEQFFGPGTRLTVLE
As to B2, in experiment [2], the “EC50 (read off the curve), IFNγ release, donor TCRA-0023” value is approximately 10 nM and the “EC50 … donor TCRA-0024” value was approximately 50 nM.

B3: TCR R44P3E7, alpha and beta chains expressed in human primary CD8+ T-cells by RNA electroporation (TCR, V domains shown)
V domain 1: RGEDVEQSLFLSVREGDSSVINCTYTDSSSTYLYWYKQEPGAGLQLLTYIFSNMDMKQDQRLTVLLNKKDKHLSLRIADTQTGDSAIYFCAEINNNARLMFGDGTQLVVKP
V domain 2: AAGVIQSPRHLIKEKRETATLKCYPIPRHDTVYWYQQGPGQDPQFLISFYEKMQSDKGSIPDRFSAQQFSDYHSELNMSSLELGDSALYFCASSPPDQNTQYFGPGTRLTVLE
For B3, in experiment [3], the “EC50 (read off the curve), IFNγ release, donor TCRA-0023” value was approximately 0.6 nM and the “EC50 … donor TCRA-0024” value was approximately 1 nM.
